{
  "source": "patent US20230212549A1",
  "about": "(3B PHARMACEUTICALS, published 2023)",
  "key": {"[1]": {"molecular_target": "T1, recombinant human PREP (R&D systems, #4308-SE) (human, UniProt P48147 1-710)", "T1 sequence": "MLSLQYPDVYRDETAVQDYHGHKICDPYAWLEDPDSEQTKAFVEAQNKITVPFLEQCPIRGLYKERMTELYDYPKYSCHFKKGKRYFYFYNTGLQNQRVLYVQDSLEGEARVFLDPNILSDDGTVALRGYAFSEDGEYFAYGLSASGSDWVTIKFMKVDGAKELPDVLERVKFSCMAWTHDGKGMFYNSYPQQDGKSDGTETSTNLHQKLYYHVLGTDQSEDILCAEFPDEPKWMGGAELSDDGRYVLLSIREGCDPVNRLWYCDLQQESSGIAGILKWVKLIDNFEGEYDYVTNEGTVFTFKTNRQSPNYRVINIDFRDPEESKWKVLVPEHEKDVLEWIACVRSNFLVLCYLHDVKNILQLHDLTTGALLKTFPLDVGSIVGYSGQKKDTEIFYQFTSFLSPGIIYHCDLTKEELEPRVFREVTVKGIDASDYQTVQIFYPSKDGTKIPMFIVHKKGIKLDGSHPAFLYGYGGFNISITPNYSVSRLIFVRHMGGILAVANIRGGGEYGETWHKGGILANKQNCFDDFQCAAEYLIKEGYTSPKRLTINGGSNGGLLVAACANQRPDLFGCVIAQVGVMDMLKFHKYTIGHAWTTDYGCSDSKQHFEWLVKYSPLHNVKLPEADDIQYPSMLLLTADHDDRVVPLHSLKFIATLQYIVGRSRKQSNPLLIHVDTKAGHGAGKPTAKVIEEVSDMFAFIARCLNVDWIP", "assay": "cell-based or functional assay"}, "[2]": {"molecular_target": "Recombinant human DPP4 (R&D systems, #9168-SE) (human, UniProt P27487 29-766)", "sequence (P27487 29-766 limits assumed)": "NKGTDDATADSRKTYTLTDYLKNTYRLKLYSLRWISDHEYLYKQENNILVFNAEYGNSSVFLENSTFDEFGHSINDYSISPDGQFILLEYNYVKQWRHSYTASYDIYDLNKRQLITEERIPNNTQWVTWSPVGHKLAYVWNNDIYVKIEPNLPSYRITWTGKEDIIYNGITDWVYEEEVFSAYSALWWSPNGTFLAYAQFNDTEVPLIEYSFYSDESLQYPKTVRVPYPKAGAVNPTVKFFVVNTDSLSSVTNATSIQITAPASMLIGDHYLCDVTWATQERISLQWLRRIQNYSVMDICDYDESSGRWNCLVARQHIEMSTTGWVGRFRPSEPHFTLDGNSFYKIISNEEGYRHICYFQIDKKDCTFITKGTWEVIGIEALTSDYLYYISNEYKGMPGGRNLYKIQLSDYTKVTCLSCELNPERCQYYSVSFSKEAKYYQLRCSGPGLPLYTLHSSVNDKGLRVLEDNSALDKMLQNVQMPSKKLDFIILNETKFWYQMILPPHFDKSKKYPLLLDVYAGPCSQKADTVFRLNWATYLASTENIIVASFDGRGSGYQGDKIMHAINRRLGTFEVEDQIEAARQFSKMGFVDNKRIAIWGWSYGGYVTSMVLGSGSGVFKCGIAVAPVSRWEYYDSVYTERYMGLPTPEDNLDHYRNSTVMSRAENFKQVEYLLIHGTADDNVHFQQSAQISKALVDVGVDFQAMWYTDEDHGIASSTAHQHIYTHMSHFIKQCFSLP", "assay": "cell-based or functional assay"}, "[3]": {"molecular_target": "T2, Recombinant human FAP (R&D systems, #3715-SE) (human, UniProt Q12884 26-760)", "T2 construct": "bought; in SPR captured on immobilized anti-FAP antibody MAB3715; also called rhFAP; human recombinant FAP", "assay": "SPR (Biacore T200), FAP captured on anti-FAP antibody, single cycle kinetics"}, "[4]": {"molecular_target": "T3, human fibroblast activation protein (FAP) on WI-38 fibroblasts (human, UniProt Q12884 1-760)", "T3 construct": "FAP-expressing human WI-38 fibroblasts (ECACC)", "assay": "competitive FACS, WI-38 cells, Cy5-labeled peptide as competitor; B = pIC50 7.1 to 8.0"}, "[5]": {"molecular_target": "T2, Recombinant human FAP (R&D systems, …)", "assay": "cell-based or functional assay"}},
  "note": "Numbered stars: 1 amine (or outer) side, 2 acyl side, 3 side chain; on linkers, the order of the positions; unused ones are H or OH. Bridge positions count the residues as written; N and C are the ends. Square brackets hold non-standard residues; d marks the D form. Primed or numbered codes have the meaning given here. * marks the point of attachment. tMeBn(LuDOTA-AET) = 1,3,5-trimethylbenzylidene (from 1,3,5-tris(bromomethyl)benzene) bridge with two thioethers to the Cys, its third CH2 carries AET (2-aminoethanethiol, attached through S), whose amine is acylated by DOTA complexing lutet, O=C([O-])CN1CCN(CC(=O)[O-])CCN(CC(=O)NCCSCc2cc(C[*:1])cc(C[*:2])c2)CCN(CC(=O)[O-])CC1.[Lu+3]; tMeBn(DOTA-PP) = 1,3,5-trimethylbenzylidene, two thioethers to Cys, third CH2 bound to one N of piperazine whose other N bears DOTA, O=C(O)CN1CCN(CC(=O)O)CCN(CC(=O)N2CCN(Cc3cc(C[*:1])cc(C[*:2])c3)CC2)CCN(CC(=O)O)CC1; Ttds″ = 1,13-diamino-4,7,10-trioxatridecan-succinamic acid spacer, O=C(CCC(=O)[*:2])NCCCOCCOCCOCCCN[*:1]; Efa = N-[2-(2-amino-ethanesulfonyl)-ethyl]-succinamic acid, O=C(CCC(=O)[*:2])NCCS(=O)(=O)CCN[*:1]; Ttds = 1,13-diamino-4,7,10-trioxatridecan-succinamic acid, O=C(CCC(=O)[*:2])NCCCOCCOCCOCCCN[*:1]; 3MeBn = 3-Methylbenzylidene (m-xylylene thioether bridge from α,α′-dibromo-m-xylene); N4Ac = 6-Carboxy-1,4,8,11-tetraazaundecane, an N4-chelator, NCCNCC(CNCCN)C(=O)*; 3MeBn(3) = 3-methylbenzylidene (m-xylylene), from α,α′-dibromo-m-xylene; DOTA = O=C(O)CN1CCN(CC(=O)O)CCN(CC(=O)*)CCN(CC(=O)O)CC1; γGlu = O=C(O)[C@H](CCC(=O)[*:2])N[*:1]; mXylylene = c1cc(C[*:1])cc(C[*:2])c1; AF488 = Alexa Fluor 488 label; 4Amb = NCc1ccc(C(=O)O)cc1; Nle = CCCC[C@H](N)C(=O)O; PEG6′ = not defined here; Hexanoyl = CCCCCC(=O)*; Ahx = NCCCCCC(=O)O; GABA = NCCCC(=O)O",
  "data": [
    {"binder": "{DOTA}-[Ttds][Nle]CPPTEFCD-NH2 (linker 3-9 via mXylylene; SMILES CCCC[C@H](NC(=O)CCC(=O)NCCCOCCOCCOCCCNC(=O)CN1CCN(CC(=O)O)CCN(CC(=O)O)CCN(CC(=O)O)CC1)C(=O)N[C@H]1CSCc2cccc(c2)CSC[C@@H](C(=O)N[C@@H](CC(=O)O)C(N)=O)NC(=O)[C@H](Cc2ccccc2)NC(=O)[C@H](CCC(=O)O)NC(=O)[C@H]([C@@H](C)O)NC(=O)[C@@H]2CCCN2C(=O)[C@@H]2CCCN2C1=O, also called 3BP-3320)", "note": "[DOTA-Ttds-Nle-[Cys(3MeBn)-Pro-Pro-Thr-Glu-Phe-Cys]-Asp-NH2]", "values": [
      {"measurement": "pIC50 (PREP)", "setting": "[1]", "value": "< 6", "unit": "pIC50"},
      {"measurement": "pIC50 (DPP4)", "setting": "[2]", "value": "< 6", "unit": "pIC50"},
      {"measurement": "pKD Category", "setting": "[3]", "value": "> 8", "unit": "pKD"}
    ]},
    {"binder": "N4Ac-[Efa][Nle]CPPTEFC-OH (linker 3-9 via 3MeBn(3), also called 3BP-4243)", "note": "[N4Ac-Efa-Nle-[Cys-(3MeBn)-Pro-Pro-Thr-Glu-Phe-Cys]-OH]", "values": [
      {"measurement": "pIC50", "setting": "[4]", "value": "7.1 to 8", "unit": "pic50"}
    ]},
    {"binder": "Hexanoyl-CPPTQFCD-NH2 (linker 1-7 via tMeBn(DOTA-PP); SMILES CCCCCC(=O)N[C@H]1CSCc2cc(cc(CN3CCN(C(=O)CN4CCN(CC(=O)O)CCN(CC(=O)O)CCN(CC(=O)O)CC4)CC3)c2)CSC[C@@H](C(=O)N[C@@H](CC(=O)O)C(N)=O)NC(=O)[C@H](Cc2ccccc2)NC(=O)[C@H](CCC(N)=O)NC(=O)[C@H]([C@@H](C)O)NC(=O)[C@@H]2CCCN2C(=O)[C@@H]2CCCN2C1=O)", "note": "[Hex-[Cys(tMeBn(DOTA-PP))-Pro-Pro-Thr-Gln-Phe-Cys]-Asp-NH2]", "values": [
      {"measurement": "pIC50 (PREP)", "setting": "[1]", "value": "< 6", "unit": "pIC50"},
      {"measurement": "pIC50 (DPP4)", "setting": "[2]", "value": "< 6", "unit": "pIC50"},
      {"measurement": "pKD Category", "setting": "[3]", "value": "> 8", "unit": "pKD"}
    ]},
    {"binder": "N4Ac-[PEG6′][Nle]CPPTEFC-OH (linker 3-9 via 3MeBn, also called 3BP-4221)", "note": "[N4Ac-PEG6-Nle-[Cys-(3MeBn)-Pro-Pro-Thr-Glu-Phe-Cys]-OH]", "values": [
      {"measurement": "pIC50", "setting": "[4]", "value": "7.1 to 8", "unit": "pic50"},
      {"measurement": "pKD Category", "setting": "[3]", "value": "> 8", "unit": "pKD"}
    ]},
    {"binder": "Hexanoyl-CPPTQFCD-NH2 (linker 1-7 via tMeBn(DOTA-AET), also called 3BP-3426)", "note": "[Hex-[Cys(tMeBn(DOTA-AET))-Pro-Pro-Thr-Gln-Phe-Cys]-Asp-NH2]", "values": [
      {"measurement": "pIC50 (PREP)", "setting": "[1]", "value": "< 6", "unit": "pIC50"},
      {"measurement": "pIC50 (DPP4)", "setting": "[2]", "value": "< 6", "unit": "pIC50"},
      {"measurement": "pKD Category", "setting": "[3]", "value": "> 8", "unit": "pKD"}
    ]},
    {"binder": "{DOTA}-[Ttds][Nle]CPPTEFCD[4Amb]R-NH2 (linker 3-9 via mXylylene; SMILES CCCC[C@H](NC(=O)CCC(=O)NCCCOCCOCCOCCCNC(=O)CN1CCN(CC(=O)O)CCN(CC(=O)O)CCN(CC(=O)O)CC1)C(=O)N[C@H]1CSCc2cccc(c2)CSC[C@@H](C(=O)N[C@@H](CC(=O)O)C(=O)NCc2ccc(C(=O)N[C@@H](CCCNC(=N)N)C(N)=O)cc2)NC(=O)[C@H](Cc2ccccc2)NC(=O)[C@H](CCC(=O)O)NC(=O)[C@H]([C@@H](C)O)NC(=O)[C@@H]2CCCN2C(=O)[C@@H]2CCCN2C1=O, also called 3BP-3321)", "note": "[DOTA-Ttds-Nle-[Cys(3MeBn)-Pro-Pro-Thr-Glu-Phe-Cys]-Asp-Pamb-Arg-NH2]", "values": [
      {"measurement": "pIC50 (PREP)", "setting": "[1]", "value": "< 6", "unit": "pIC50"},
      {"measurement": "pIC50 (DPP4)", "setting": "[2]", "value": "< 6", "unit": "pIC50"},
      {"measurement": "pKD Category", "setting": "[3]", "value": "> 8", "unit": "pKD"}
    ]},
    {"binder": "H-[Ahx][Ttds][Nle]CPPTQFCD-NH2 (linker 4-10 via tMeBn(DOTA-PP); SMILES CCCC[C@H](NC(=O)CCC(=O)NCCCOCCOCCOCCCNC(=O)CCCCCN)C(=O)N[C@H]1CSCc2cc(cc(CN3CCN(C(=O)CN4CCN(CC(=O)O)CCN(CC(=O)O)CCN(CC(=O)O)CC4)CC3)c2)CSC[C@@H](C(=O)N[C@@H](CC(=O)O)C(N)=O)NC(=O)[C@H](Cc2ccccc2)NC(=O)[C@H](CCC(N)=O)NC(=O)[C@H]([C@@H](C)O)NC(=O)[C@@H]2CCCN2C(=O)[C@@H]2CCCN2C1=O, also called 3BP-4004)", "note": "[H-Ahx-Ttds-Nle-[Cys-(tMeBn(DOTA-PP))-Pro-Pro-Thr-Gln-Phe-Cys]-Asp-NH2]", "values": [
      {"measurement": "pIC50 Category (Activity)", "setting": "[5]", "value": "> 8", "unit": "pIC50"},
      {"measurement": "pIC50", "setting": "[4]", "value": "7.1 to 8", "unit": "pic50"}
    ]},
    {"binder": "N4Ac-[γGlu][Ttds″][Nle]CPPTEFC-OH (linker 4-10 via mXylylene; SMILES CCCC[C@H](NC(=O)CCC(=O)NCCCOCCOCCOCCCNC(=O)CC[C@H](NC(=O)C(CNCCN)CNCCN)C(=O)O)C(=O)N[C@H]1CSCc2cccc(c2)CSC[C@@H](C(=O)O)NC(=O)[C@H](Cc2ccccc2)NC(=O)[C@H](CCC(=O)O)NC(=O)[C@H]([C@@H](C)O)NC(=O)[C@@H]2CCCN2C(=O)[C@@H]2CCCN2C1=O, also called 3BP-4247)", "note": "[N4Ac-gGlu-Ttds-Nle-[Cys-(3MeBn)-Pro-Pro-Thr-Glu-Phe-Cys]-OH]", "values": [
      {"measurement": "pIC50", "setting": "[4]", "value": "7.1 to 8", "unit": "pic50"}
    ]},
    {"binder": "Hexanoyl-CPPTQFCD[GABA]R[Ttds″][Ttds″][Ttds″]K(AF488)-NH2 (linker 1-7 via tMeBn(LuDOTA-AET); also: Lu complexed by DOTA, also called 3BP-4373)", "note": "[Hex-[Cys(tMeBn(LuDOTA-AET))-Pro-Pro-Thr-Gln-Phe-Cys]-Asp-Gab-Arg-Ttds-Ttds-Ttds-Lys(AF488)-NH2]", "values": [
      {"measurement": "pIC50 Category (Activity)", "setting": "[5]", "value": "> 8", "unit": "pIC50"},
      {"measurement": "pIC50", "setting": "[4]", "value": "7.1 to 8", "unit": "pic50"}
    ]},
    {"binder": "N4Ac-E[Ttds″][Nle]CPPTEFC-OH (linker 4-10 via 3MeBn, also called 3BP-4222)", "note": "[N4Ac-Glu-Ttds-Nle-[Cys-(3MeBn)-Pro-Pro-Thr-Glu-Phe-Cys]-OH]", "values": [
      {"measurement": "pIC50", "setting": "[4]", "value": "7.1 to 8", "unit": "pic50"},
      {"measurement": "pKD Category", "setting": "[3]", "value": "> 8", "unit": "pKD"}
    ]}
  ]
}
